# Data taken from PMC3742741 (PLoS ONE, 2013).
# Square brackets hold non-standard residues; d marks the D form. SeMet = C[Se]CC[C@H](N)C(=O)O
# T1: BAP31 full-length C-terminal cytoplasmic region (residues 124-242), untagged (Homo sapiens (Human), UniProt P51572)
# T1 chain: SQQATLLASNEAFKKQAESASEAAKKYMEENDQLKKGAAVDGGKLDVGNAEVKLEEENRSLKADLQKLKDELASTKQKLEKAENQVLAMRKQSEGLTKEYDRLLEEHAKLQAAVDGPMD
# T2: His-tagged full-length C-terminal cytoplasmic domain of BAP31 (residues 124-242) (Homo sapiens (Human), UniProt P51572)
# T2 chain: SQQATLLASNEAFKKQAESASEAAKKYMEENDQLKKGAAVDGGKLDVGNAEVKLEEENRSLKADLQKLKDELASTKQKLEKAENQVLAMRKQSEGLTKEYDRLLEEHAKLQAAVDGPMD
# T3: His-tagged full-length C-terminal cytoplasmic domain of BAP29 (residues 125-237) (Homo sapiens (Human), UniProt Q9UHQ4)
# T3 chain: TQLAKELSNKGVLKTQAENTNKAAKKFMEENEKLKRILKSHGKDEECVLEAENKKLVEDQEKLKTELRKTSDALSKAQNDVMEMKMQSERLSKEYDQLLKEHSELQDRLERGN
# Legend:
# [1] = biological target: the molecule itself; experiment: crystal structure; twinned P3_(2)21 form, selenomethionine labeled protein, crystal grown at 19 °C in 100 mM Na citrate pH 4.2, 33% PEG 400, 200 mM LiSO4
# [2] = biological target: T1, BAP31 full-length C-terminal …; experiment: analytical gel filtration
# [3] = biological target: T2, His-tagged full-length C-terminal …; experiment: IMAC pull-down
# [4] = biological target: the molecule itself; experiment: CD thermal unfolding against protein concentration; midpoint of thermal unfolding at pH 6.0 with 0.25 µM to 5 µM protein
# [5] = biological target: T3, His-tagged full-length C-terminal …; experiment: IMAC pull-down
# [6] = biological target: the molecule itself; experiment: SEC; calibrated gel filtration, Superdex 200, 10-400 µM protein, 20 mM Na-P pH 7.0, 150 mM NaCl, 0.1 mM TCEP; Stoke's radius compared with radii of gyration of dimer and tetramer
# [7] = biological target: P51572; experiment: native MS; native ESI MS, 150 mM NH4 acetate pH 7, 1.24 mg/mL further diluted in 15% acetonitrile and 5% 2-propanol, LTQ-Orbitrap Velos
binder,measurement,setting,value
"Selenomethionine labeled BAP31 vDED (residues 168-233), untagged (domain or fragment, human, UniProt P51572 168-233, looked up, BAP31, human, UniProt P51572, vDED domain, residues 168-233; Same construct as m1, with selenomethionine; used for the P3_(2)21 crystal form at pH 4.2 (residues 169-220 modeled); also called BAP31 vDED acidic pH (P3_(2)21 form); source: E. coli BL21(DE3) Rosetta 2 grown in minimal medium, purified as the native protein with 2 mM TCEP; not shown: His6, N-terminal, cleaved) LDVGNAEVKLEEENRSLKADLQKLKDELASTKQKLEKAENQVLA[SeMet]RKQSEGLTKEYDRLLEEHAKL",binding result,[1],binds
"BAP29 full-length C-terminal cytoplasmic region (residues 125-237), untagged (protein) TQLAKELSNKGVLKTQAENTNKAAKKFMEENEKLKRILKSHGKDEECVLEAENKKLVEDQEKLKTELRKTSDALSKAQNDVMEMKMQSERLSKEYDQLLKEHSELQDRLERGN",binding result,[2],no binding
same,binding result,[3],no binding
"BAP31 full-length C-terminal cytoplasmic region (residues 124-242), untagged (domain or fragment, human, UniProt P51572 124-242, looked up, BAP31, human, UniProt P51572, C-terminal cytoplasmic region, residues 124-242; also called BAP31 Cyt; BAP31 full-length cytoplasmic; source: E. coli BL21(DE3) Rosetta 2, purified (IMAC, TEV cleavage, reverse IMAC, gel filtration); not shown: His6, N-terminal, cleaved) SQQATLLASNEAFKKQAESASEAAKKYMEENDQLKKGAAVDGGKLDVGNAEVKLEEENRSLKADLQKLKDELASTKQKLEKAENQVLAMRKQSEGLTKEYDRLLEEHAKLQAAVDGPMD",binding result,[4],binds
same,binding result,[5],no binding
"BAP31 vDED (variant of death effector domain of human BAP31, residues 168-233), untagged (domain or fragment, UniProt P51572 168-233, looked up, BAP31, human, UniProt P51572, vDED domain, residues 168-233; Vector pNIC28-Bsa4; also called vDED domain of BAP31; source: E. coli BL21(DE3) Rosetta 2, purified (IMAC, TEV cleavage, reverse IMAC, gel filtration); not shown: His6, N-terminal, cleaved) LDVGNAEVKLEEENRSLKADLQKLKDELASTKQKLEKAENQVLAMRKQSEGLTKEYDRLLEEHAKL",stoichiometry N,[6],2
same,dimer peak height relative to the monomer peak,[7],≥35% of the monomer peak height
